From patent publication US20250332297A1, “DLL3-SPECIFIC BINDING CONSTRUCTS AND THEIR USE IN RADIOTHERAPY” (MOLECULAR PARTNERS AG, priority 2024, published 2025)

T1: Dog DLL3-NTD (truncated dog DLL3, N-Terminal Domain, residues 27-189, C-terminal 6xHis and Avi-tag) (dog, UniProt A0A8I3MXZ5 27-188, biotinylated at the Avi-tag)
T1 construct: also called dog NTD; not shown: C-terminal 6xHis and Avi-tag
T1 sequence: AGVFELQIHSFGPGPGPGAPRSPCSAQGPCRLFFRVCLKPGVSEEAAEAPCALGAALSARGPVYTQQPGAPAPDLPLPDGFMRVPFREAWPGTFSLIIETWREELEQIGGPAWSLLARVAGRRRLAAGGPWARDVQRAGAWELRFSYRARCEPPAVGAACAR

T2: Human DLL3-NTD (truncated human DLL3, N-Terminal Domain, residues 27-189, C-terminal 6xHis and Avi-tag) (human, UniProt Q9NYJ7 27-189)
T2 construct: also called hDLL3-NTD; human NTD; not shown: C-terminal 6xHis and Avi-tag
T2 sequence: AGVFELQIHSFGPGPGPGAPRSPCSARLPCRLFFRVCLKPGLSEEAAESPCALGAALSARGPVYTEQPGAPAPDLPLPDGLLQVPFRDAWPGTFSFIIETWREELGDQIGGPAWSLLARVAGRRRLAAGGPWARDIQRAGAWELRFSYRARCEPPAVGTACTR

T3: Cyno DLL3-ECD (extracellular domain of cynomolgus macaque DLL3, residues 27 to 466, Avi-tag, 3C site, Fc knob … (cynomolgus macaque, UniProt A0A2K5WSR1 27-464, biotinylated at the Avi-tag (Example 11)))
T3 construct: range 27-466; also called cyno ECD; cynomolgus monkey DLL3; not shown: Avi-tag, 3C protease recognition site and Fc knob into hole
T3 sequence: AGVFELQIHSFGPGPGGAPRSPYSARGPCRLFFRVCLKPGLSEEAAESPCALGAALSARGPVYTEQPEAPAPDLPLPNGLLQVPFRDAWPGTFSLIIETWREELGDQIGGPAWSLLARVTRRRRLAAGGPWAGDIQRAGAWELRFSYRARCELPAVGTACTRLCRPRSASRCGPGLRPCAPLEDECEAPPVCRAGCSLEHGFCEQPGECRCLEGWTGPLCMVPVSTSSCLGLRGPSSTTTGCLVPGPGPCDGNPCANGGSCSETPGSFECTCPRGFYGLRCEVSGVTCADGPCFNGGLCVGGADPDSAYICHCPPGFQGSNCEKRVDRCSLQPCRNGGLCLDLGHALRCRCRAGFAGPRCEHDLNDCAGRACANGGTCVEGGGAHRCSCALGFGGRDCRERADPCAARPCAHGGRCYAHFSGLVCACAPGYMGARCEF

B1: High HSA affinity 2D DARPin (SEQ ID NO: 17), Cysteine capped with iodoacetamide (designed binder)
chain: GSDLGKKLLEAARAGQDDEVRELLKAGADVNAKDYFSHTPLHLAARNGHLKIVEVLLKAGADVNAKDFAGKTPLHLAADAGHLEIVEVLLKAGADVNAQDIFGKTPADIAADAGHEDIAEVLQKAAGSPTPTPTTPTPTPTTPTPTPTGSDLGTKLLSAAADGQDDEVRELLQAGADVNAKDLFGYTPLHLAAWRGHLEIVEVLLEAGADVNAKDAAGLTPLHLAAWFGHLEIVEVLLEAGADVNAQDVQGVTPADLAAKEGHEDIAEVLQQAAGSGSC
modifications: free C-terminal Cysteine capped with Iodoacetamide (IAM)
notes: MAM160 with GS at the N-terminus and a Cysteine-containing tag at the C-terminus, without His-tag; also called GS-MAM160-tag
B2: MAM279 (SEQ ID NO: 11) with a Glycine-Serine (GS) at its N-terminal end and an N-terminal His-tag (SEQ ID NO: 19) (designed binder)
chain: MRGSHHHHHHGSDLGKKLLEAARAGQDDEVRELLKAGADVNAKDYFSHTPLHLAARNGHLKIVEVLLKAGADVNAKDFAGKTPLHLAADAGHLEIVEVLLKAGADVNAQDIFGKTPADIAADAGHEDIAEVLQKAAGSPTPTPTTPTPTPTTPTPTPTGSDLGKKLLAAAAQGQDDEVRELLKAGANVNAKDLFGYTPLHLAAWRGHLEIVEVLLKAGADVNAKDAAGETPLHLAAWFGHLEIVEVLLKAGADVNAQDLQGKTPADLAAKEGHEDIAEVLQKAA
notes: also called unconjugated MAM279
B3: Human DLL3-ECD (recombinant extracellular domain of human DLL3, Examples 11, 17 and 19) (Fc fusion)
chain: AGVFELQIHSFGPGPGPGAPRSPCSARLPCRLFFRVCLKPGLSEEAAESPCALGAALSARGPVYTEQPGAPAPDLPLPDGLLQVPFRDAWPGTFSFIIETWREELGDQIGGPAWSLLARVAGRRRLAAGGPWARDIQRAGAWELRFSYRARCEPPAVGTACTRLCRPRSAPSRCGPGLRPCAPLEDECEAPLVCRAGCSPEHGFCEQPGECRCLEGWTGPLCTVPVSTSSCLSPRGPSSATTGCLVPGPGPCDGNPCANGGSCSETPRSFECTCPRGFYGLRCEVSGVTCADGPCFNGGLCVGGADPDSAYICHCPPGFQGSNCEKRVDRCSLQPCRNGGLCLDLGHALRCRCRAGFAGPRCEHDLDDCAGRACANGGTCVEGGGAHRCSCALGFGGRDCRERADPCAARPCAHGGRCYAHFSGLVCACAPGYMGARCEF
modifications: biotinylated at the Avi-tag where immobilised (Examples 11 and 19)
notes: also called hDLL3-ECD; human ECD; not shown: Avi-tag and Fc knob into hole (order depends on the format)

Columns and labels:
mouse serum albumin [1] = target: T4, mouse serum albumin (mouse, UniProt P07724 25-608); assay: SPR (ProteOn), MSA on chip, IAM-capped 2D DARPin as analyte, 1:1 Langmuir fit
T4 construct: also called MSA
T4 sequence (P07724 25-608 limits assumed): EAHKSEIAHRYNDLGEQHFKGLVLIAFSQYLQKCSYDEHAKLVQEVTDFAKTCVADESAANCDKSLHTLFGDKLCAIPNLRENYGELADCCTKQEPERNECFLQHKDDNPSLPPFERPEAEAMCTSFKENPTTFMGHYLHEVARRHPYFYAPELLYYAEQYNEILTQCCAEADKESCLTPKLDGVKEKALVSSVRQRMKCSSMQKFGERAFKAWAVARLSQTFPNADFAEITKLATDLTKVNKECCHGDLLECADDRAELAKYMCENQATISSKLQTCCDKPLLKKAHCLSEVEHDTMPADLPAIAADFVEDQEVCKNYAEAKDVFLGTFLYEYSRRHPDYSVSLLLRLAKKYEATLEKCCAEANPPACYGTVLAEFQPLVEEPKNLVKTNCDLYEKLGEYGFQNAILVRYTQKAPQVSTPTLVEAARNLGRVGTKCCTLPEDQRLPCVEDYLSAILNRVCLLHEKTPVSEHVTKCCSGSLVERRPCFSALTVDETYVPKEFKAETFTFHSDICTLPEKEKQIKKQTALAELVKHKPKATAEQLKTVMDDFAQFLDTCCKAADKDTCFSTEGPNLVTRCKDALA
Experimental: (§4) For SPR analysis, the free Cysteine of the 2D DARPins was capped with Iodoacetamide (IAM). […] Various concentrations of 2D DARPins starting from 2000 nM were applied to immobilized human serum albumin (HSA) or mouse serum albumin (MSA) for on-rate and off-rate measurements.
(§5) The data were generated using a BioRad ProteOn instrument with SPR running buffer (PBS, pH 7.4 containing 0.05% Tween 20®). A HC200M chip (Xantec) was conditioned according to the manufacturer's protocol. […] The data was double referenced (control spot and buffer injection) and fitted to a 1:1 Langmuir model. The obtained SPR traces were used to determine binding parameters.

human serum albumin [2] = target: T5, human serum albumin (human, UniProt P02768 25-609); assay: SPR (ProteOn), HSA on chip
T5 construct: also called HSA

human serum albumin [3] = target: T5, human serum albumin; assay: SPR (ProteOn), HSA on chip, IAM-capped 2D DARPin as analyte, 1:1 Langmuir fit
Experimental: as §4, §5

[4] = target: B3; assay: SPR (ProteOn), biotinylated human DLL3-ECD on chip, DARPin as analyte, 1:1 Langmuir fit (same values as Table 14)
Experimental: (§1) The data were generated using BioRad ProteOn instrument in SPR running buffer (PBS, pH 7.4 containing 0.005% Tween 20©). […] The chip was coated with biotinylated target to reach a signal intensity of 1516 RU (human ECD), 257 RU (human NTD), 1500 RU (cyno ECD) and 228 RU (dog NTD). […] Each injection was followed by a regeneration step with 16 mM H₃PO₄ for 18 s. […] The obtained SPR traces were used to determine on-rate and off-rate interaction parameters.

[5] = target: T1, Dog DLL3-NTD (truncated dog DLL3, …); assay: SPR (ProteOn), biotinylated dog DLL3-NTD on chip, DARPin as analyte, 1:1 Langmuir fit
Experimental: as §1

human serum albumin [6] = target: T5, human serum albumin; assay: SPR (ProteOn), HSA on chip, DARPin as analyte, 1:1 Langmuir fit
Experimental: (§2) SPR multi-trace analyses were performed similarly as described in previous Examples.
(§3) All analytes (3-fold dilution ranging from 600-7.41 nM) were injected in succession for 240 s and dissociation was recorded for 600 s using a constant flow of 25 μl/min (HSA) or 100 μl/min (MSA) (25 μl/min).

[7] = target: T2, Human DLL3-NTD (truncated human DLL3, …); assay: SPR (ProteOn), biotinylated human DLL3-NTD on chip, DARPin as analyte, 1:1 Langmuir fit
Experimental: as §1

mouse serum albumin [8] = target: T4, mouse serum albumin; assay: SPR (ProteOn), MSA on chip, DARPin as analyte, 1:1 Langmuir fit
Experimental: as §2, §3

[9] = target: T3, Cyno DLL3-ECD (extracellular domain of …); assay: SPR (ProteOn), biotinylated cyno DLL3-ECD on chip, DARPin as analyte, 1:1 Langmuir fit
Experimental: as §1

[10] = target: T3, Cyno DLL3-ECD (extracellular domain of …); assay: SPR (ProteOn)
[11] = target: T1, Dog DLL3-NTD (truncated dog DLL3, …); assay: SPR (ProteOn)
[12] = target: B3; assay: SPR (ProteOn), biotinylated human DLL3-ECD on chip, DARPin as analyte, 1:1 Langmuir fit
Experimental: as §1

human serum albumin [13] = target: T5, human serum albumin; assay: SPR, HSA injected (injection 2) over immobilised hDLL3-ECD without conjugate

**Q.** B1 was tested. Which Kd (mouse serum albumin [1]) did it give?
**A.** The Kd was 259 nM.

**Q.** What about the koff (mouse serum albumin [1]) of the same binder?
**A.** The koff was 0.0345 s⁻¹.

**Q.** And the kon (mouse serum albumin [1])?
**A.** The kon was 133000 M⁻¹ s⁻¹.

**Q.** What about the “fold higher binding affinity than the Low HSA affinity 2D DARPin” value (human serum albumin [2]) of the same binder?
**A.** Its value is about 10 fold.

**Q.** What about the Kd (human serum albumin [3]) of the same binder?
**A.** The Kd was 295 nM.

**Q.** And the koff (human serum albumin [3])?
**A.** Its koff is 0.0311 s⁻¹.

**Q.** What about the kon (human serum albumin [3]) of the same binder?
**A.** Its kon is 105000 M⁻¹ s⁻¹.

**Q.** With B2 as the binder, how does the Kd [4] read?
**A.** Its Kd is 0.174 nM.

**Q.** What about the koff [4] of the same binder?
**A.** Its koff is 1.45e-05 s⁻¹.

**Q.** And the kon [4]?
**A.** The kon was 83500 M⁻¹ s⁻¹.

**Q.** And the Kd [5]?
**A.** Its Kd is 1.2 nM.

**Q.** And the koff [5]?
**A.** Its koff is 5.58e-05 s⁻¹.

**Q.** And the kon [5]?
**A.** Its kon is 46400 M⁻¹ s⁻¹.

**Q.** And the Kd (human serum albumin [6])?
**A.** The Kd was 75.5 nM.

**Q.** And the koff (human serum albumin [6])?
**A.** The koff was 0.0216 s⁻¹.

**Q.** What about the kon (human serum albumin [6]) of the same binder?
**A.** The kon was 286000 M⁻¹ s⁻¹.

**Q.** And the Kd [7]?
**A.** The Kd was 0.263 nM.

**Q.** And the koff [7]?
**A.** The koff was 1.54e-05 s⁻¹.

**Q.** What about the kon [7] of the same binder?
**A.** The kon was 58700 M⁻¹ s⁻¹.

**Q.** And the Kd (mouse serum albumin [8])?
**A.** Its Kd is 144 nM.

**Q.** What about the koff (mouse serum albumin [8]) of the same binder?
**A.** Its koff is 0.0383 s⁻¹.

**Q.** What about the kon (mouse serum albumin [8]) of the same binder?
**A.** The kon was 267000 M⁻¹ s⁻¹.

**Q.** What about the Kd [9] of the same binder?
**A.** Its Kd is 22 nM.

**Q.** And the koff [9]?
**A.** The koff was 0.000978 s⁻¹.

**Q.** And the kon [9]?
**A.** Its kon is 44500 M⁻¹ s⁻¹.

**Q.** And the “fold lower affinity than to human DLL3-ECD” value [10]?
**A.** The value was about 100 fold.

**Q.** What about the “fold lower affinity than to human DLL3-ECD” value [11] of the same binder?
**A.** Its value is about 10 fold.

**Q.** What about the Kd [12] of the same binder?
**A.** Its Kd is 0.174 nM.

**Q.** What about the koff [12] of the same binder?
**A.** The koff was 1.45e-05 s⁻¹.

**Q.** And the kon [12]?
**A.** Its kon is 83500 M⁻¹ s⁻¹.

**Q.** Does B3 bind (human serum albumin [13])?
**A.** Result: no binding (tested: 1000 nM)
